In PMC7726437 (2020):

Key:
Experiment in all cases: BLI
[1] = target: T1, anti-idiotype vNAR-Fc variant S9 (bamboo shark, biotin (EZ-Link Sulfo-NHS-LC-Biotin) in the cellular binding assay only)
T1 chain: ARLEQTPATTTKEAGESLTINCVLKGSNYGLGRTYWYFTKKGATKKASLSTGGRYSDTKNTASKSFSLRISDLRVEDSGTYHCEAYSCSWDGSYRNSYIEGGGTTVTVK

[2] = target: T2, anti-idiotype vNAR-Fc variant S2 (bamboo shark, biotin (EZ-Link Sulfo-NHS-LC-Biotin) in the cellular binding assay only)
T2 chain: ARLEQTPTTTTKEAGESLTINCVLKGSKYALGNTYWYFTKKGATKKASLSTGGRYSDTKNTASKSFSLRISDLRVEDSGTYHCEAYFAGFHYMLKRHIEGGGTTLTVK

[3] = target: T3, anti-idiotype vNAR-Fc variant S7 (bamboo shark)
T3 chain: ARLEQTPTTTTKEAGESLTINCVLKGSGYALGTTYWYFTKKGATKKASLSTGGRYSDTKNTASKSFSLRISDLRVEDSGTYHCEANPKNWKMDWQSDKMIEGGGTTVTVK

[4] = target: T4, anti-idiotype vNAR-Fc variant S4 (bamboo shark)
T4 chain: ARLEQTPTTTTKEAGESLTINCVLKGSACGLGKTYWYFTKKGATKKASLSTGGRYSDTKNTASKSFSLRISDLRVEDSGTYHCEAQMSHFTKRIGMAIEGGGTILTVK

B1: soluble recombinant B-cell receptor (BCR) of lymphoma cell line SUP-B8, produced as full-length IgG (antibody, V domains shown)
VH: LVQSGGEVKKPGASVKVSCKASGYTFHSYGITWVRQAPGQGLEWMGWINGYNGYTNYAQKLQDRVTMTTNTSTNTVYMEVRSLRSDDTAVYYCARDDCSGDNCYMSAYWGQGTVVTVSS
VL: QSVLTQPPSASGTPGQRVTISCSGSSSNIASNYVYWYQQLPGMAPKLLIYRDNQRPSGVPDRFSGSRSGTSASLAISGLRSDDEADYYCATWDDSLSGWVFGGGTKLTVL
- Kd [1]: 11 nM
- Kd [2]: 4.5 nM
- Kd [3]: 1.9 nM
- Kd [4]: 5.3 nM
